Assay results reported in patent US20130078720, “METHOD FOR INDUCING PLURIPOTENCY IN HUMAN SOMATIC CELLS WITH PRDM14 OR NFRKB” (Agency for Science, Technology and Research, published 2013).

Molecular target: T1, PRDM14 DNA binding domain (C-terminal 179 aa) (Homo sapiens, UniProt Q9GZV8 SEQ:393-571)
T1 sequence: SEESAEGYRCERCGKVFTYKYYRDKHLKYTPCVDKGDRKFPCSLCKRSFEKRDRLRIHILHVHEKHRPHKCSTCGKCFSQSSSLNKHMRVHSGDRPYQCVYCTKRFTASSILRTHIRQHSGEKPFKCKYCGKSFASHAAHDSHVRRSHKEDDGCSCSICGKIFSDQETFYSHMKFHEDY
Experiment: EMSA; 100 ng protein, 1 ng probe, poly(dI-dC), 10 mM ZnCl2, 60 mM KCl, pH 7.9, room temperature
Settings: tags: His tag, pET42b, E. coli BL21; label: 5' biotin on sense strand
Method: Recombinant PRDM14 DNA binding domain (His tagged) was used in the gel shift assays. Briefly, a cDNA encoding 179 amino acids of the C terminus of PRDM14 was cloned into the pET42b (Novagen) vector using cloning sites NdeI and XhoI. The fusion construct was transformed into BL21 competent cells (Strategene) according to the supplier's instructions. Purified proteins were dialyzed against a dialysis buffer (10 mM Tris-HCl, pH 7.4, 100 mM NaCl, 10 mM ZnCl₂ and 10% glycerol) at 4° C. for 6 hr. Oligonucleotides (Proligo) labeled with biotin at the 5′ end of the sense strands were annealed with the antisense strands in the annealing buffer (10 mM Tris-HCl, pH8.0, 50 mM NaCl, 1 mM EDTA) and purified with agarose gel DNA extraction kit (Qiagen). DNA concentrations were determined by the NanoDrop ND-1000 spectrophotometer. The gel shift assays were performed using a LightShift Chemiluminescent EMSA kit (Pierce Biotechnologies). 100 ng of protein was added to a 5 μl reaction mixture (final) containing 1 μg of poly(dI-dC) (Amersham), 1 ng of biotin-labeled oligonucleotide in the binding buffer (12 mM HEPES, pH7.9, 10% glycerol, 60 mM KCl, 0.25 mM EDTA, 1 mM DTT, 10 mM ZnCl₂). Binding reaction mixtures were incubated for 20 min at room temperature. […] Gels were transferred to Biodyne B nylon membranes (Pierce Biotechnologies) using western blot techniques and detected using chemiluminescence.

B1: CR2 probe (dsDNA)
DNA 1: CAGCTCTAACCCTAAACAAGTGCTCAACCCTTGAATGGGCCTGGATGGCT
DNA 2: AGCCATCCAGGCCCATTCAAGGGTTGAGCACTTGTTTAGGGTTAGAGCTG
B1: binds.
